Data reported in paper PMC11721587, “Morphogen-induced kinase condensates transduce Hh signal by allosterically activating Gli” (Science Advances, 2025).
Positions count from the first letter of the chain named.

Legend:
[1] = molecular target: the molecule itself; experiment: SDS-PAGE and immunoblot (SDS-resistant dimer); SDS-resistant ~250 Kd Fu dimer ('mature Fu') in extracts of cells (Cl8 with Hh-conditioned medium, S2, Sf9, wing discs); tells nothing of SDS-labile association
[2] = molecular target: the molecule itself; experiment: co-sedimentation; sedimentation assay of HEK293T cells overexpressing Ulk3-HA constructs; S100 soluble, P100 condensates

B1: Flag-Fu^EE (enzyme)
chain: MNRYAVSSLVGQGSFGCVYKATRKDDSKVVAIKVISKRGRATKELKNLRRECDIQARLKHPHVIEMIESFESKTDLFVVTEFALMDLHRYLSYNGAMGEEPARRVTGHLVSALYYLHSNRILHRDLKPQNVLLDKNMHAKLCDFGLARNMELGEHVLTSIKGTPLYMAPELLAEQPYDHHADMWSLGCIAYESMAGQPPFCASSILHLVKMIKHEDVKWPSTLTSECRSFLQGLLEKDPGLRISWTQLLCHPFVEGRIFIAETQAEAAKESPFTNPEAKVKSSKQSDPEVGDLDEALAALDFGESRQENLTTSRDSINAIAPSDVEHLETDVEDNMQRVVVPFADLSYRDLSGVRAMPMVHQPVINSHTCFVSGNSNMILNHMNDNFDFQASLRGGGVAAKPIVAPTVRQSRSKDLEKRKLSQNLDNFSVRLGHSVDHEAQRKATEIATQEKHNQENKPPAEAISYANSQPPQQQPQQLKHSMHSTNEEKLSSDNTPPCLLPGWDSCDESQSPPIENDEWLAFLNRSVQELLDGELDSLKQHNLVSIIVAPLRNSKAIPRVLKSVAQLLSLPFVLVDPVLIVDLELIRNVYVDVKLVPNLMYACKLLLSHKQLSDSAASAPLTTGSLSRTLRSIPELTVEELETACSLYELVCHLVHLQQQFLTQFCDAVAILAASDLFLNFLTHDFRQSDSDAASVRLAGCMLALMGCVLRELPENAELVERIVFNPRLNFVSLLQSRHHLLRQRSCQLLRLLARFSLRGVQRIWNGELRFALQQLSEHHSYPALRGEAAQTLDEISHFTFFVT
modifications: SUMOylated in Sf9 cells (condensate fraction)
- stoichiometry N [1]: 2

B2: Ulk3-HA^WT (in HEK293T) (enzyme, mouse, UniProt Q3U3Q1 1-472, looked up)
chain: MAGPSWGLPRLDGFILTERLGSGTYATVYKAYAKKDTREVVAIKCVAKKSLNKASVENLLTEIEILKGIRHPHIVQLKDFQWDNDNIYLIMEFCAGGDLSRFIHTRRILPEKVARVFMQQLASALQFLHERNISHLDLKPQNILLSSLEKPHLKLADFGFAQHMSPWDEKHVLRGSPLYMAPEMVCRRQYDARVDLWSVGVILYEALFGQPPFASRSFSELEEKIRSNRVIELPLRPQLSLDCRDLLQRLLERDPARRISFKDFFAHPWVDLEHMPSGESLAQARALVVEAVKKDQEGDAAAALSLYCKALDFFVPALHYEVDAQRKEAIKAKVGQYVSRAEELKAIVSSSNQALLRQGTTVQELLREMARDKPRLLAALEVASAALAKEEEAGKEQDALDLYQHSLGELLVLLAAEAPGRRRELLHTEVQNLMARAEYLKEQIKIRESHWEAESLDKEGLSESVRSSCTLQ
modifications: SUMO-conjugated form enriched in the condensates (P100)
notes: source: HEK293T, transfected, overexpressed; in lysate fractions (S100, P100); purified from HEK293T for in vitro maturation; not shown: 3x HA, C-terminal, kept
- binding result [2]: binds

B3: fused (Fu) (enzyme, Drosophila (endogenous in Cl8), UniProt P23647 1-805, looked up)
chain: B1 chain with E151T, E154T
notes: Fu Ser/Thr kinase, Drosophila, endogenous in Cl8 cells; After Hh it is phosphorylated (T158/S159, S482) and SUMO-conjugated; the SDS-resistant dimer is called mature Fu; also called endogenous Fu; mature Fu; source: endogenous, Cl8 cells (fractions, lysates)
- stoichiometry N [1]: 2
